B1: HDV Ribozyme (parent)
chain: GGCCGGCAUGGUCCCAGCCUCCUCGCUGGCGCCGGCUGGGCAACAUUCCGAGGGGACCGUCCCCUCGGUAAUGGCGAAUGGGACCCA

Variants of: B1
Assay: self-cleavage, relative activity (ratio to wild type); higher = more cleavage; co-transcriptional

Variant	self-cleavage
C48G C61U	0.876
C48G C61A	0.927
C48U G53A	0.888
C48U G55C	0.938
C49A U72G	0.443
C49A U72C	0.32
C49A U72A	0.225
G50A A77C	0.227
G50A G54A	0.726
C49A U60G	1.33
C49A U60A	0.745
C49A C62G	0.128
C48U A71C	0.789
C48U A71U	0.585
C48U G67U	1.27
C48U G67C	1.01
C49U G59U	0.858
C49U G59A	0.935
C49U G59C	0.799
C49A A71G	0.81
G50A A70G	0.763
G50A A70C	0.763
G50A A70U	1.05
C48U U60G	0.776

Variant	self-cleavage
C48U U60A	1
C49G G55U	0.844
C48G C85G	0.875
C48G C85A	0.8
C49U G50A	1.05
C49U G50C	0.991
C49U C57U	1.18
C49U C57G	1.19
C49A C66G	0.96
C49U G54C	0.856
C49U G54U	0.87
C48G G59A	0.92
C48G G59U	1.07
C49U A51U	0.867
C49U A51C	0.712
C48U C57U	0.969
C48U C57G	0.798
C49G U72G	0.604
C49G U72A	0.0692
C49U A78G	0.692
C48U G52A	0.931
C48G G68U	0.88
C48G G68A	0.723
G50A U69A	1.01

Variant	self-cleavage
C49G G76C	0.982
C48G C64A	0.344
C49G C57A	1.19
C49A G74C	0.0755
G50A C58A	1.12
G50A C58G	0.909
G50A C58U	0.919
C49U G76A	1.08
C49U G76U	1.18
C48U U79C	0.45
C48U A70G	0.997
C48U A70U	1.07
C49U G73U	0.509
C49G U69A	0.798
C49G U69G	0.831
C49G U69C	0.898
C49A A56U	1.1
C49A A56C	1.05
C49U C63U	0.958
C48G G74U	0.509
C48G C75A	0.175
C48G C75U	0.285
C48U U69G	0.869
C48U G76C	1.16

Variant	self-cleavage
C49U G55U	0.909
C48G G76C	0.867
C48G G76U	0.997
C48G G76A	1.12
C48U C64G	0.721
C49G A87C	0.672
G50A C61A	0.875
C48A G81C	0.193
C48A G81U	0.338
C48A G81A	0.448
C49A G82C	0.222
C48U C62A	0.847
C48U C62G	0.485
C48U C62U	1.15
C48A G82U	0.496
C48A G82A	0.332
C48U C58U	0.904
C49A G52U	0.369
C49A G52A	0.739
C49A G76U	1.01
C49A G76A	0.991
C49G A83C	0.403
C49G C86U	0.831
C49G C86A	0.966

Variant	self-cleavage
C49G A51U	0.554
C48G C58A	1.14
C48G G81U	0.424
C48G A51C	0.88
C48G A51G	0.997
C48G A51U	1.02
G50A G74U	0.483
C48U C66G	0.658
C48U C66A	0.923
C48U C66U	0.947
C49U U79G	0.688
C49U U79C	0.47
G50A U60G	0.514
G50A U60C	0.945
C49A A83C	0.6
C48G G73A	0.623
C48G G73U	0.506
C48G G73C	0.403
C48G A70C	0.6
C48U G68A	0.885
G50A G68U	0.767
C49U U69C	0.831
C48G U79C	0.345
C48G U79G	0.795

Variant	self-cleavage
C48G C66G	0.906
C49G G52U	0.48
C49G G81C	0.196
C49U A56G	1.04
C49U A56C	0.773
C49G G80C	0.178
C49G G80A	0.465
C49G G80U	0.123
C48U C85G	0.941
C49U G53C	1.05
C49U G53A	0.916
C48G A77C	0.323
C48G A77G	0.755
G50A G76C	0.98
G50A G76A	1.05
G50A G53U	0.727
G50A G53C	0.759
G50A G53A	0.803
G50A A83U	0.486
G50A A83G	0.99
C49A C75G	0.128
C49A C75U	0.175
C48G G55A	0.888
C48U G81C	0.381

Variant	self-cleavage
C48U G81A	0.308
C48G U72G	0.369
C49U G68C	0.784
C49U G68A	0.987
C48U A83G	0.671
C48U A83C	0.906
C48U A83U	0.475
C49A G54C	0.843
C48U C84G	0.712
C49U C86A	0.793
C49U G82A	0.436
C48G C49U	1.08
G50A G52C	0.672
C48U C63A	0.791
C49A A70U	0.812
C49U G74U	0.507
C48G A83C	0.573
C48G A83U	0.554
C48G A83G	0.779
C49A G67A	1.27
C49A A77G	0.458
C49A A77C	0.252
C49A A77U	0.404

From the RNAGym collection of RNA variant scans (doi:10.7554/elife.80360)
